Paper PMC11467380
Read-outs that look alike come from different tables or passages of the source.

Assays:
[1] = target: U1 snRNP ΔU1-C, biotinylated on SmF and Cy5-labelled on the U1 snRNA (CoSMoS form) (human) (UniProt P08621); assay: colocalization single molecule spectroscopy
[2] = target: U1 snRNP ΔU1-C, biotinylated on SmF and Cy5-labelled on the U1 snRNA (CoSMoS form) (human) (UniProt P08621); assay: colocalization single molecule spectroscopy; remark: listed apart in the source
[3] = target: minimal U1 snRNP with U1-C (SPR) (human, UniProt P08621;P62316;P62318;P14678;P62306;P62304;P62308;P09234 …, internal_change); assay: SPR
[4] = target: T1, minimal U1 snRNP without U1-C (CoSMoS);U1-C zinc finger (U1-C_61) (human;human, UniProt P08621;P62316;P62318;P14678;P62306;P62304;P62308;P09234 …, internal_change|); assay: single-molecule CoSMoS
[5] = target: T1, minimal U1 snRNP without U1-C …; assay: single-molecule CoSMoS; remark: listed apart in the source

Chain of U1-C_61 (zinc finger region of U1-C) (P09234 1-61): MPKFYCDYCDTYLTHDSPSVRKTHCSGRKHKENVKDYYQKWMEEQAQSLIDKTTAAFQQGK

Work on “U1-C_61 (zinc finger region of U1-C) (from UniProt P09234 1-61) (domain or fragment)” yielded an EC50 [1] of 1.3 nM and an EC50 [2] of 1.8 nM.

CAGAGUAAGUAU (ssRNA) [11bp-1A] showed a Kd [3] of 2.7 nM.

For CAGGUAAGUAU (ssRNA) [11bp], the Kd [3] was 0.203 nM.

ACACAGAGUAAGUUAACA (ssRNA) [9bp-1A] gave a Kd [4] of 1.2 nM.

With ACACAGGUAAGUUAACA (ssRNA) [9bp] the Kd [5] was about 0.12 nM.
